Experiment: soluble on expression in E. coli; label from the status in PepcDB or PDB records
With “RSFGLIIPDLENTSYARLAKLIEQNSRKAGYQILIGCSDDDPETEKKVAEALISRRIDALFVASGMPSANEYYLKLQNSGTPVIALDRPMDDEHFCCVISEDFDAAFELTESVLSPEIKTIGLIGALQDLQVSKERELGFRSACQKDDTAMTVGYGLHFSREEGKKVLDKWVQADSLPDAIVTTSYTLLEGVLDVMLEKPELMSQVRLATFGDNRLLDFLPVKINSLPQQFELIADSAMELALNASAKRYKPGVELIPRKIVKRQ” the “soluble on expression in E. coli” value was “not soluble”.
With “RSVRVLVDMDGVLADFEAGLLRGFRRRFPEEPHVPLEQRRGFLAREQYRALRPDLADKVASVYEAPGFFLDLEPIPGALDAVREMNDLPDTQVFICTSPLLKYHHCVGEKYRWVEQHLGPQFVERIILTRDKTVVLGDLLIDDKDTVRGQEETPSWEHILFTCCHNRHLVLPPTRRRLLSWSDNWREILDSKR” the “soluble on expression in E. coli” value was “soluble”.
With “RTDNLGLAPYGRVDLSGGSFGTFRRSVKLGSGRIGRHWAVDARLSKIGSDGYVDRGSVDLKSYFAQVGYFGSNTALRFITFGGKEVTGIAWNGLSKEDEAKYGRRYNSAGLMYVDAQGVPHYYHNTDNYEQRHYHAIMTHSFSPSVILNLTAHYTAGYGYTDEYRTGRKLKEYALQPYVENSVTVKKTDLIRQKYLDNDFGGLIGSLNWHTGAWDLQFGASGNIYKGDHFGRITYIKKYNQPLAPDFEYYRNRADKREGAAFAKANWQITPELNMYADLQYRTIGYTINGITDEYDEVQGSMQHIDLDKTFRFLNPKAGLTYSFDDAHTAYASVAVAHREPNRTNYTEAGIGQYPTPERLIDYELGYRYASPLLSAGVGLYYMQYKDQLVLDGRLSDVGQMLTSNVPDSYRMGLELTLGWQILPRLLRWDASFTMSRNKIDRYVQYTSVYDADYNWLELKEETLESTDIAYSPNVIAGSMLTLSHAGFEMAWTSRFVSKQYLDNTQRSDRMLSSYWVNDLRLGYVLPVHFVKRVALGVQLNNLFNLMYASNAYIYDAGYVQASGELSAYADLRYYPQAGFNALGSLTIDF” the “soluble on expression in E. coli” value was “not soluble”.
For “RVETQPEVQLPGPAPNLRAYAASPTSITVTWETPVSGNGEIQNYKLYYMEKGTDKEQDVDVSSHSYTINGLKKYTEYSFRVVAYNKHGPGVSTPDVAVRTLSD”, the “soluble on expression in E. coli” value was “soluble”.
In the case of “RVTVMLAAFEGWNDAGEAASDALHYLNKLWDGKKVATVDAEEYYDFQFTRPTVRRTSSGARKVKWPSTRIYKAEVPDSNVDVVLVLGTEPSYRWRAYTTELLVHAEALKVDSVILVGALLADVPHSRPIPVSTTTEDSSLRERLNLEASQYEGPVGIVGVLAEFAMLAGLPTVSLWAAVPHYVAQPPSPKAQLAILHRIEDLLQVPLDSQALAEESEAWERGVDELATEDPEITAYVRQLEEAKDTADLPE”, the “soluble on expression in E. coli” value is reported as “not soluble”.
With “SAADLGQIPDVDIDSDGVFKYVLIRVHLAEPSGDPAKECKEIVRGYKWAEYHADIYDKVSGELQRNGYDCECLGGGRISHQSQDRKIHVYGYSMGYGRAQHSVSTEKIKAKYPDYEVTWADDGY” the “soluble on expression in E. coli” value was “soluble”.
In the case of “SAAEEEDEVEWVVESIAGFLRGPDWSIPILDFVEQKCEVFDDEEESKLTYTEIHQEYKELVEKLLEGYLKEIGINEDQFQEACTSPLAKTHTSQAILQPVLAAEDFTIFKAMMVQKNIEMQLQAIRIIQERNGVLPDCLTDGSDVVSDLEHEEMKILREVLRKSKEEYDQEEERKRKKQLSEAKTEEPTVHSSEAAIMNNSQGDGEHFAHPPSEVKMHFANQSIEPLGRKVERSETSSLPQKGLKFPGLEHASIEGPIANLSVLGTEELRQREHYLKQKRDKLMSMRKDMRTKQIQNMEQKGKPTGEVEEMTEKPEMTAEEKQTLLKRRLLAEKLKEEVINK”, the “soluble on expression in E. coli” value is reported as “soluble”.
In the case of “SAAKALKDLKNLPVSERNIDYKTKLLVGKMNGTAEDKPPQNSVPFDHNHPKGDEIEKPEAERVIVEIEYIESKDLNNVTQVDAVLKSLVTELDSKDWVLVCDALNTIRRLSIFHKEEMLHMLEKVILFIVKSLKNPRSAVSKTACMTSADIFSSYNDHTIDQLDLLLTQLLLKSSQDKRFVCEAAEKALVAMTAHVSPALLLPKLQPFLKNRNPRIRAKASTCFSRCVPRLGIEGIREYGIEKLVQAASSQLSDQLPESREAARAVLLELQTVYKKTTNVEPKEEHPEPVTWQIFCQSNLSPLSAQAVIRVTNVAGVAREGLVAGS”, the “soluble on expression in E. coli” value is reported as “soluble”.
For “SAAPMSNVDEIRDRVILGEFGVKNVHTTDYPGNYPGYDDTWDFEKFKKNFRIEIISSDENTLEFDMIGIDAAIANAFRRILLAEVPTMAIEKVFIYNNTSIIQDEILAHRLGLVPIKADPRLFEYRNSEDQEGTEIDTIQLQLKVKCTRNPRAPKDSSDPKELYLNHMIYSGDIKWLPIGNQADVFADAKIGPVHGDILLAQVRPGQELDIVMHCVKGIGKDHAKFSPVATASYRLLPEITLLQTIEGEQAERLKRCFSPGVIELENVNGRKVAKVVNSRLDTCSREVLRHDDLKSLVKLGRVRDHFIFSVESTGILPPDVLVTEAINVLMSKCQKFLTELEATEMD”, the “soluble on expression in E. coli” value was “soluble”.
In the case of “SADEEEEVKPILQKLQELVDQLYSFRDCYFETHSVEDAGRKQQDVRKEMEKTLQQMEEVVGSVQGKAQVLMLTGKALNVTPDYSPKAEELLSKAVKLEPELVEAWNQLGEVYWKKGDVAAAHTCFSGALTHCRNKVSLQNLSMVLRQLRTDTEDEHSHHVMDSVRQAKLAVQMDVHDGRSWYILGNSYLSLYFSTGQNPKISQQALSAYAQAEKVDRKASSNPDLHLNRATLHKYEESYGEALEGFSRAAALDPAWPEPRQREQQLLEFLDRLTSLLESKGKVKTKKLQSMLGSLRPAHLGPCSDGHYQSASGQKVTLELKPLSTLQPGVNSGAVILGKVVFSLTTEEKVPFTFGLVDSDGPCYAVMVYNIVQSWGVLIGDSVAIPEPNLRLHRIQHKGKDYSFSSVRVETPLLLVVNGKPQGSSSQAVATVASRPQCE”, the “soluble on expression in E. coli” value is reported as “soluble”.
In the case of “SADSEADKPLRKISAAFKKLAIIVNSPNPEVPVTQFSHACSLVSPLFGCLGIAFKFAEMDYVAKVDDLVRASSSISTLVVMMDKDIEADCVRKAGSHTRNLLRVKRGLDMVKVLFEQIIASEGDNSLKDPATKSYAQVFAPHHGWAIRKAVSLGMYALPTRAHLLNMLKEDEAAAKIHMQSYVNSSAPLITYLDNLFLSKQLGIDW”, the “soluble on expression in E. coli” value is reported as “soluble”.
For “SAKGGKGPKGKKITLNVAKNCIKITFDGRKRLDLSKMGITTFPKCILRLSDIDELDLSRNMIRKIPDSIAKFQNLRWLDLHSNYIDKLPESIGQMTSLLFLNVSNNRLTTNGLPVELNQLKNIRTVNLGLNHLDSVPTTLGALKELHEVGLHDNLLTTIPASIAKLPKLKKLNIKRNPFPNADESEMFVDSIKRLENLYLVEEKDMCSSCLQRCQQARDKLNKIKSMAPSAPRKALFSNLVSPNSTAKDAQEEWR”, the “soluble on expression in E. coli” value was “soluble”.
With “SANAEVSVPVGDVVVVPTEGNEGENPEDTKTQVILQLQPVQQGIYEAGSENNTAVVAVETHTIHKIEEGIDTGTIEANEDMEIAYPITCGESKAILLWKKFVCPGINVKCVKFNDQLISPKHFVHLAGKSTLKDWKRAIRLGGIMLRKMMDSGQIDFYQHDKVCSNTCRSTKFDLLISSARAPVPGQQTSVVQTPTSADGSITQIAISEESMEEAGLEWNSALTAAVTMATEEGVKKDSEEISEDTLMFWKGIADVGLMEEVVCNIQKEIEELLRGVQQRLIQAPFQVTDAAVLNNVAHTFGLMDTVKKVLDNRRNQVEQGEEQFLYTLTDLERQLEEQKKQGQDHRLKSQTVQNVVLMPVSTPKPPKRPRLQRPASTTVLSPSPPVQQPQFTVISPITITPVGQSFSMGNIPVATLSQGSSPVTVHTLPSGPQLFRYATVVSSAKSSSPDTVTIHPSSSLALLSSTAMQDGSTLGNMTTMVSPVELVAMESGLTSAIQAVESTSEDGQTIIEIDPAPDPEAEDTEGKAVILETELRTEEKVVAEMEEHQHQVHNVEIVVLED” the “soluble on expression in E. coli” value was “soluble”.
In the case of “SAPAAALKKAAEAAEPATVTEDATDLQNEVDQELLKDMYGKEHVNIVFIGHVDAGKSTLGGNILFLTGMVDKRTMEKIEREAKEAGKESWYLSWALDSTSEEREKGKTVEVGRAYFETEHRRFSLLDAPGHKGYVTNMINGASQADIGVLVISARRGEFEAGFERGGQTREHAVLARTQGINHLVVVINKMDEPSVQWSEERYKECVDKLSMFLRRVAGYNSKTDVKYMPVSAYTGQNVKDRVDSSVCPWYQGPSLLEYLDSMTHLERKVNAPFIMPIASKYKDLGTILEGKIEAGSIKKNSNVLVMPINQTLEVTAIYDEADEEISSSICGDQVRLRVRGDDSDVQTGYVLTSTKNPVHATTRFIAQIAILELPSILTTGYSCVMHIHTAVEEVSFAKLLHKLDKTNRKSKKPPMFATKGMKIIAELETQTPVCMERFEDYQYMGRFTLRDQGTTVAVGKVVKILD”, the “soluble on expression in E. coli” value is reported as “soluble”.
With “SAVVPASLSGQDVGSFAYLTIKDRIPQILTKVIDTLHRHKSEFFEKHGEEGVEAEKKAISLLSKLRNELQTDKPFIRLVEKFVDTDIWNQYLEYQQSLLNESDGKSRWFYSPWLLVECYIDRRIHEAIIQSPPIDYFDVFKESKEQNFYGSQESIIALCTHLQQLIRTIEDLYENQLKDEFFKLLQISLWGNKCDLSLSGGESSSQNTNVLNSLEDLKPFILLNDMEHLWSLLSNCKKTREKASATRVYIVLDNSGFELVTDLILADFLLSSELATEVHFYGKTIPWFVSDTTIHDFNWLIEQVKHSNHKWMSKCGADWEEYIKMGKWVYHNHIFWTLPHEYCAMPQVAPDLYAELQKAHLILFKGDLNYRKLTGDRKWEFSVPFHQALNGFHPAPLCTIRTLKAEIQVGLQPGQGEQLLASEPSWWTTGKYGIFQYDGPL” the “soluble on expression in E. coli” value was “not soluble”.
For “SDDFDMLSAPQGSAGNGVGADEDPAAAFLAQQESEIAGIENDEGFSILDSGDVPSSLSQDQDGGAMNGDLHGESNGPSDVYAAISSVDRLQAEPESLRKWREEQRDRLEELDANSRKQEAEWKEKAKLELEEWHTRQNEQLEKTKVNNRVLDEDFYKQPFADLIGYVTHINHPCYRLDQAAEEAMVSELDENSPGTEWERVARLCDFNPKSSKQAKDVSRMRSVLISLKQAPLVR”, the “soluble on expression in E. coli” value was “soluble”.
For “SDDTLFQLKFTAKQLEKLAKKAEKDSKAEQAKVKKALQQKNVECARVYAENAIRKKNEGVNWLRMASRVDAVASKVQTAVTMKGVTKNMAQVTKALDKALSAMDLQKVSAVMDRFEQQVQNLDVHTSVMEDSVSSATTLTTPQEQVDSLIVQIAEENGLEVLDQLSQLPEGASAVGESSVRSQEDQLSRRLAALRN”, the “soluble on expression in E. coli” value was “soluble”.
In the case of “SDEINAQSVWSEEISSNYPLCIKNLMEGLKKNHHLRYYGRQQLSLFLKGIGLSADEALKFWSEAFTNMTMEKFNKEYRYSFRHNYGLEGNRINYKPWDCHTILSKPRPGRGDYHGCPFRDWSHERLSAELRSMKLTQAQIISVLDSCQKGEYTIACTKVFEMTHNSASADLEIGEQTHIAHPNLYFERSRQLQK”, the “soluble on expression in E. coli” value is reported as “soluble”.
For “SDERDVLWVGVCAMPKKVESEPMQRILAALTSSRVAHFEPMIFDAKTLFERPIHKWPVCDALIAFHSEGFPLERAIAYAELRRPYCLNGLREQRMLLDRSKVYEVLARERVPVPRHIVVRHDGADVGRTDTRFVEHDDYIEYCGERLFKPFVEKPIDAEDHRVCIYYARPLYGRRRLFRKTANQSSVFEPGWRRVRREGAFIYEEFIPSEHQSDIKVYAVGPEYAYAERRKSPVVDGIVERNAHGKELRFPVELSTAERCVAATITAAFRQFVCGFDLIRHADGNAFYVNDVNGFSFVKGSQSYYESCGRILAEHLARECARSAAVDGE”, the “soluble on expression in E. coli” value was “soluble”.
In the case of “SDESDLPSAMPAVPAFGVEERNMVSGVLTLAERSIRSIMTPRTDVSWVNIDDDAATIRQQLTAAPHSFFPVCRGSLDEVVGIGRAKDLVADLITEGRVRRNRLRDPIIVHESIGILRLMDTLKRSRGQLVLVADEFGAIEGLVTPIDVFEAIAGEFPDEDELPDIVAESE”, the “soluble on expression in E. coli” value is reported as “soluble”.
In the case of “SDFANLSSTNKELSPQYNWVACGILEGGLKAAGVLEEGQYNRELAEAIAAKGEGFWTTQFPQIGDWNEDQAAALADRAQTCGLVKADTYLSELSSNFSS”, the “soluble on expression in E. coli” value is reported as “soluble”.
